The text below walks through data of publication PMC10397247.

Assay in all cases: two-hybrid library CCNG1;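 further: natural log of median RNA to DNA barcode read ratio; higher means stronger binding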
One experiment has as its target T1, P6bHq.
T1 chain: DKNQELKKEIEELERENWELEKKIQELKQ

For a further experiment, the target named is T2, P5bHq.
T2 chain: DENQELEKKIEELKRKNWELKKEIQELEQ

The next experiment concerns the target T3, P9bHq.
T3 chain: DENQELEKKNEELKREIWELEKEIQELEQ

The next experiment has as its target T4, P8bHq.
T4 chain: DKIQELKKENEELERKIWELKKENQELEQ

The next experiment concerns the target T5, P7bHq.
T5 chain: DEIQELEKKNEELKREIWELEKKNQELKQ

Another experiment concerns the target T6, 4H491-bA.
T6 chain: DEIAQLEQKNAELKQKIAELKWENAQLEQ

For a further experiment, the target named is T7, O16-bN.
T7 chain: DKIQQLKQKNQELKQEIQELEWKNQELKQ

In the next experiment the target is T8, 4H56-bH.
T8 chain: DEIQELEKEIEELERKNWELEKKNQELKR

For the next experiment, the target named is T9, 4H3297-bH.
T9 chain: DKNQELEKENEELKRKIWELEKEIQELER

A further experiment has as its target T10, 4H932-bH.
T10 chain: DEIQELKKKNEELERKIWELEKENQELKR

For another experiment, the target named is T11, 4H2859-bH.
T11 chain: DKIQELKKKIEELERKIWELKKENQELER

The target of the next experiment is T12, 4H796-bH.
T12 chain: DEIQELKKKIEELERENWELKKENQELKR

The next experiment addresses T13, 4H3041-bH.
T13 chain: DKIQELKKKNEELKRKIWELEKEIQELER

The next experiment addresses T14, 4H349-bH.
T14 chain: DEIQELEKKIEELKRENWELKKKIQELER

A further experiment has as its target T15, 4H949-bH.
T15 chain: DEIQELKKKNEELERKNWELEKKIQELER

A further experiment has as its target T16, 4H730-bH.
T16 chain: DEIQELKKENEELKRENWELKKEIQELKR

A further experiment addresses T17, 4H3364-bH.
T17 chain: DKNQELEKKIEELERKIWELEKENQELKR

The next experiment has as its target T18, 4H3381-bH.
T18 chain: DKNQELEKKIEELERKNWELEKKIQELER

In a further experiment the target is T19, 4H2931-bH.
T19 chain: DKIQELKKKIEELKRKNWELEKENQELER

The next experiment concerns the target T20, 4H754-bN.
T20 chain: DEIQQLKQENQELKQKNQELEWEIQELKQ

A further experiment has as its target T21, 4H575-bN.
T21 chain: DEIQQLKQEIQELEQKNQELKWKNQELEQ

The next experiment deals with T22, 4H918-bN.
T22 chain: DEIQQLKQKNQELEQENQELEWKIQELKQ

Another experiment concerns the target T23, 4H683-bN.
T23 chain: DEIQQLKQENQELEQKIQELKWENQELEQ

In the next experiment the target is T24, 4H3427-bN.
T24 chain: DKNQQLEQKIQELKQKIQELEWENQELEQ

A further experiment deals with T25, 4H3112-bN.
T25 chain: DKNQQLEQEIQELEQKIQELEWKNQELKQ

For a further experiment, the target named is T26, 4H797-bN.
T26 chain: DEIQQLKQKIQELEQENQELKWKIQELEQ

The target of a further experiment is T27, 4H2673-bN.
T27 chain: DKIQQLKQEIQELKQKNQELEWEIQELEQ

A further experiment concerns the target T28, 4H3010-bN.
T28 chain: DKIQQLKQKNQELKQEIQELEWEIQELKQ

For the next experiment, the target named is T29, 4H3057-bN.
T29 chain: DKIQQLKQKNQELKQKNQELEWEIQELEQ

The next experiment deals with T30, 4H780-bN.
T30 chain: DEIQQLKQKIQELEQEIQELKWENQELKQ

A further experiment deals with T31, 4H855-bN.
T31 chain: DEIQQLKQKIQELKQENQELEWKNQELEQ

Another experiment concerns the target T32, 4H953-bN.
T32 chain: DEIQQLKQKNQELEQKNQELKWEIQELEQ

The target of another experiment is T33, 4H457-bN.
T33 chain: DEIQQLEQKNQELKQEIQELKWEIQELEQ

Another experiment has as its target T34, 4H3926-bN.
T34 chain: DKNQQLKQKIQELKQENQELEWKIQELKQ

In another experiment the target is T35, 4H968-bN.
T35 chain: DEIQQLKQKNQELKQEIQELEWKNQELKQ

Another experiment has as its target T36, 4H2702-bN.
T36 chain: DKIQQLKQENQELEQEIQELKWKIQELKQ

The target in the next experiment is T37, 4H346-bN.
T37 chain: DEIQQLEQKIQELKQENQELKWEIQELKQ

A further experiment addresses T38, 4H4073-bN.
T38 chain: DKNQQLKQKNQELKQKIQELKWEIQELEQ

The next experiment concerns the target T39, P6mSN.
T39 chain: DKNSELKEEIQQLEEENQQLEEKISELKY

In a further experiment the target is T40, P9mSN.
T40 chain: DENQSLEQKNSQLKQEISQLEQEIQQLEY

The target of the next experiment is T41, P8mSN.
T41 chain: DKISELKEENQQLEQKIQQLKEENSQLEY

For another experiment, the target named is T42, P7mSN.
T42 chain: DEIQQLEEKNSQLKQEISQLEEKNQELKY

B1: P5bHq (peptide)
chain: DENQELEKKIEELKRKNWELKKEIQELEQ
B1: the interaction score was 0.519 with P6bHq; -1.33 with P5bHq; -0.517 in the experiment with P9bHq; 0.944 with P8bHq; -0.58 with P7bHq.

B2: 4H491-bA (peptide)
chain: DEIAQLEQKNAELKQKIAELKWENAQLEQ
Turning to B2, the values for the interaction score with 4H491-bA and in the experiment with O16-bN were -0.879 and 0.749, respectively.

B3: 4H2859-bH (peptide)
chain: DKIQELKKKIEELERKIWELKKENQELER
Take B3: the interaction score is 0.547 with 4H56-bH; 1.08 with 4H491-bA; 0.299 with 4H3297-bH; -0.5 with 4H932-bH; 1.11 with 4H2859-bH; -0.548 in the experiment with 4H796-bH. Besides, the interaction score in the experiment with 4H3041-bH is 1.2; with 4H349-bH it was -0.11; with 4H949-bH, -1.01; with 4H730-bH, -0.682; in the experiment with 4H3364-bH it was 1.02; with 4H3381-bH, 0.199. This molecule showed an interaction score in the experiment with 4H2931-bH of -0.182.

B4: 4H2673-bN (peptide)
chain: DKIQQLKQEIQELKQKNQELEWEIQELEQ
As to B4, the interaction score was -1.07 with 4H754-bN; -1.53 with 4H575-bN; -1.57 in the experiment with 4H918-bN; -0.954 in the experiment with 4H683-bN; -1.55 with 4H3427-bN; -0.658 with 4H3112-bN. Moreover, the interaction score with 4H797-bN was -0.839; with 4H2673-bN, 0.657; with 4H3010-bN it was 1.39; with 4H3057-bN, -0.47; with 4H780-bN, -1.43; in the experiment with 4H855-bN, -1.2. The interaction score with 4H3381-bH was -0.468; with 4H953-bN, -1.21; with 4H457-bN it was -1.88; with 4H3926-bN, -0.806; with 4H968-bN, -0.538; with 4H2702-bN, -0.755. The interaction score with 4H346-bN is -0.543; with 4H4073-bN, -1.63.

B5: P6mSN (peptide)
chain: DKNSELKEEIQQLEEENQQLEEKISELKY
On to B5, for which the interaction score in the experiment with P6mSN is 0.276; with P9mSN, -0.248; with P8mSN it was -1.19; with P7mSN it was -0.951.
